From PMC4794604 (Molecules and Cells, 2016)

Key:
Experiment in all cases: ELISA
Fc-fused ECD of PDGFRβ = Fc-fused ECD of PDGFRβ (Homo sapiens (assumed), UniProt P09619)
HGFR/c-Met ECD-Fc = HGFR/c-Met ECD-Fc (Homo sapiens (assumed), UniProt P08581)
Fc-fused ECD of HER3 = Fc-fused ECD of HER3 (Homo sapiens (assumed), UniProt P21860)
Fc-fused ECD of HER4 = Fc-fused ECD of HER4 (Homo sapiens (assumed), UniProt Q15303)
[1] = target: Fc-fused ECD of FGFR3 (IIIc) (Homo sapiens (assumed), UniProt P22607)
Fc-fused ECD of FGFR3 (IIIc), sequence (P22607 23-375): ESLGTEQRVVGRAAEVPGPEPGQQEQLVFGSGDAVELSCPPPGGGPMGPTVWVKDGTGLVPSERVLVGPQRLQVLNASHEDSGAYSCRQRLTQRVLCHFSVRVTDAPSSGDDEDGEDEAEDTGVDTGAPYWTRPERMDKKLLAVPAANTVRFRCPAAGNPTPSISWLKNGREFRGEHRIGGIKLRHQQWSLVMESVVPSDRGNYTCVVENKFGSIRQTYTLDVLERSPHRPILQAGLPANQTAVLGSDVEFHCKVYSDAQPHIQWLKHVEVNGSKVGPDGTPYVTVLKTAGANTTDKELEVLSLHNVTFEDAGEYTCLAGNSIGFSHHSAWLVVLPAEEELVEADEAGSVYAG

Fc-fused ECD of IGF-IR = Fc-fused ECD of IGF-IR (Homo sapiens (assumed), UniProt P08069)
Fc-fused ECD of IGF-IR, sequence (P08069 741-935): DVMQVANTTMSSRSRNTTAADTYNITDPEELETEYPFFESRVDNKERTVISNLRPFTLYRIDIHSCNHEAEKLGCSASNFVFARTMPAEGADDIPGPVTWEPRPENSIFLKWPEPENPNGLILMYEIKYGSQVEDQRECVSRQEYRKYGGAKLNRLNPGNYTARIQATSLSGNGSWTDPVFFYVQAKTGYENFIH

Fc-fused ECD of VEGFR2 = Fc-fused ECD of VEGFR2 (Homo sapiens (assumed), UniProt P35968)
Fc-fused ECD of VEGFR2, sequence (P35968 20-764): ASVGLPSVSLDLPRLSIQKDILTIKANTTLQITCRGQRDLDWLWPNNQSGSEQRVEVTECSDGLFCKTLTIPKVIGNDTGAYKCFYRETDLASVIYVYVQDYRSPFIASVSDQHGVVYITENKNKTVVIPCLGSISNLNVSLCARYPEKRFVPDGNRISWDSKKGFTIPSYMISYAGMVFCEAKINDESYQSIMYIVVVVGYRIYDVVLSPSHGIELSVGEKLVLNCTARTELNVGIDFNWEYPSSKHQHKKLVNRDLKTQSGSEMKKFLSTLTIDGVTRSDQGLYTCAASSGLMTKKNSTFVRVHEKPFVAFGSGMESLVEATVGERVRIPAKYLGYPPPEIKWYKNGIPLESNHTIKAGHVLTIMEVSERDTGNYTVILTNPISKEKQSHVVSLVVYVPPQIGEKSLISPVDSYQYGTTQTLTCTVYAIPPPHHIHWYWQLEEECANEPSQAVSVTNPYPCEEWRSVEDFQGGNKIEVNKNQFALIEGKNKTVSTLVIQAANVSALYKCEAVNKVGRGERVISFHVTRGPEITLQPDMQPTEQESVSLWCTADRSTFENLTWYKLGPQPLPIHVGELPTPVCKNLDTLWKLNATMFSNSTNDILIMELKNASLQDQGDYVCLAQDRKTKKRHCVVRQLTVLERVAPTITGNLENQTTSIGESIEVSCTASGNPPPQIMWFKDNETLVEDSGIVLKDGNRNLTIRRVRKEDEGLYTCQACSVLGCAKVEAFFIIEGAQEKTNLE

Fc-fused ECD of EGFR = Fc-fused ECD of EGFR (Homo sapiens (assumed), UniProt P00533)

Fc-fused ECD of HER3, sequence (P21860 20-643): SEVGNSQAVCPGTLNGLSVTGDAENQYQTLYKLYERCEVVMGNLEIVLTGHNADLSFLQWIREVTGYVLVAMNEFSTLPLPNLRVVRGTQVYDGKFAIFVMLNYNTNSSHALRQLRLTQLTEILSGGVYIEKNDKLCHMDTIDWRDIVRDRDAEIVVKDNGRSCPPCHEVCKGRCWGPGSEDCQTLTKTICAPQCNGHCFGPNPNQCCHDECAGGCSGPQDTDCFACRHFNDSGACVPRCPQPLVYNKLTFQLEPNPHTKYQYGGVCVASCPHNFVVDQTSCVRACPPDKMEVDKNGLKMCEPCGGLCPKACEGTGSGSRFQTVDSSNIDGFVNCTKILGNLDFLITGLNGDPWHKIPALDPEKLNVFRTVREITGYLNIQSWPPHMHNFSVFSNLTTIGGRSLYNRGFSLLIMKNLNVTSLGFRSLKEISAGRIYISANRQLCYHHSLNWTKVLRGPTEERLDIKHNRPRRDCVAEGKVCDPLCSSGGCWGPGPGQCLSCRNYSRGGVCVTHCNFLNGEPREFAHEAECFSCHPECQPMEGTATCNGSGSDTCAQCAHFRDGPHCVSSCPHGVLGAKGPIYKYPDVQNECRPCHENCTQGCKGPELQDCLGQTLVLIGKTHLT
HGFR/c-Met ECD-Fc, sequence (P08581 25-932): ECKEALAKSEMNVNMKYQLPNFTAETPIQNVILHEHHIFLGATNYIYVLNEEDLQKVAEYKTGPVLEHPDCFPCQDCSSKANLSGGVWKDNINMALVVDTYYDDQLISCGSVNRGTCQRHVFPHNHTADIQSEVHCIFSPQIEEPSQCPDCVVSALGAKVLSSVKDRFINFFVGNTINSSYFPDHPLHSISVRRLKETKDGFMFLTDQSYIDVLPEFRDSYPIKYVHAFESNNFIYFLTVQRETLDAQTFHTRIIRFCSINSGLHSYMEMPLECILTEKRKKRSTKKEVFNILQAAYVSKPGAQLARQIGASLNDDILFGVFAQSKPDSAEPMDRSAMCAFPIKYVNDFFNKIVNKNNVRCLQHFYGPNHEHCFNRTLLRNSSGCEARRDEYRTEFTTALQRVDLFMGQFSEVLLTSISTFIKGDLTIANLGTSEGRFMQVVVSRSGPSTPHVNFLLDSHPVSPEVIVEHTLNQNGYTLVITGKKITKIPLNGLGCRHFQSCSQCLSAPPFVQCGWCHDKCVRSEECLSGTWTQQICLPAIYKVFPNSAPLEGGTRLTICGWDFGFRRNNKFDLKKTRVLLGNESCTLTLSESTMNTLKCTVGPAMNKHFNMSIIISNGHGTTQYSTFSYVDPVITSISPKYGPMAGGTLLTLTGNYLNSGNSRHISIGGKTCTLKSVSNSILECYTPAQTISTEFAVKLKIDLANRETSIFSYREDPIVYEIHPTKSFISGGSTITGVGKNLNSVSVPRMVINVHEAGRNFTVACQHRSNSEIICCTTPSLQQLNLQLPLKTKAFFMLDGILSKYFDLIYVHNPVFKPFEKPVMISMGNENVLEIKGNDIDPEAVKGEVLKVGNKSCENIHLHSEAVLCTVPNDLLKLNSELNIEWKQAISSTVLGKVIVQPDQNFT
Fc-fused ECD of PDGFRβ, sequence (P09619 33-532): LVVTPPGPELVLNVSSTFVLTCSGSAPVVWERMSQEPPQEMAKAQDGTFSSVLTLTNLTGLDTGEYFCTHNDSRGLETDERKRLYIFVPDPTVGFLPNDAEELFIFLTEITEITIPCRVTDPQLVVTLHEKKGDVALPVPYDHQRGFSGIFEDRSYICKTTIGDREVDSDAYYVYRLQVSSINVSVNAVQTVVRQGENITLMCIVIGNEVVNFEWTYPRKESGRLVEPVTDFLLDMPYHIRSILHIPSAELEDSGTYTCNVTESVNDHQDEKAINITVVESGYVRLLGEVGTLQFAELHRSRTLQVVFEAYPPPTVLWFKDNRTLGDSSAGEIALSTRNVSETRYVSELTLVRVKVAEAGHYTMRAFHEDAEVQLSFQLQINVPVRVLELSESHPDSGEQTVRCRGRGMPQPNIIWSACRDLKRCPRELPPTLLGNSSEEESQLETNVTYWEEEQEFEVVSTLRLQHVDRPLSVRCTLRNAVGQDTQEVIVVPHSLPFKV
Fc-fused ECD of HER4, sequence (Q15303 26-651): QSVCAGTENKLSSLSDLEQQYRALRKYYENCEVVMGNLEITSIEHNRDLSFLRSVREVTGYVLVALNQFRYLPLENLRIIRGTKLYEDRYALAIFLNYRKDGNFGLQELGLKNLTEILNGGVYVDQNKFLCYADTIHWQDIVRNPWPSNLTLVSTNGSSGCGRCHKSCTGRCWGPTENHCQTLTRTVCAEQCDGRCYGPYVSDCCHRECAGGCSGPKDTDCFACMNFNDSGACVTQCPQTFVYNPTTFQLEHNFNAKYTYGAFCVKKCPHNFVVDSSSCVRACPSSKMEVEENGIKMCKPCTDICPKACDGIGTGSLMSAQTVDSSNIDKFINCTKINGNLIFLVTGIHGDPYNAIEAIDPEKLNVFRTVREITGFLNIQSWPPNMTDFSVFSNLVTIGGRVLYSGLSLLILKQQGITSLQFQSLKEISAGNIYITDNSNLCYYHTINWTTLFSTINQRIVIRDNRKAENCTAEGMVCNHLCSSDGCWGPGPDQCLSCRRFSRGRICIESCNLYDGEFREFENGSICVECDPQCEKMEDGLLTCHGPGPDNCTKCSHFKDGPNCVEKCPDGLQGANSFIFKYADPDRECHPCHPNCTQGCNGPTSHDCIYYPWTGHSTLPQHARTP

binding result (Fc-fused ECD of PDGFRβ): no binding (tested: 30 nM)
binding result (HGFR/c-Met ECD-Fc): no binding (tested: 30 nM)
binding result (Fc-fused ECD of HER3): no binding (tested: 30 nM)
binding result (Fc-fused ECD of HER4): no binding (tested: 30 nM)
binding result [1]: no binding (tested: 30 nM)
binding result (Fc-fused ECD of IGF-IR): no binding (tested: 30 nM)
binding result (Fc-fused ECD of VEGFR2): no binding (tested: 30 nM)
binding result (Fc-fused ECD of EGFR): no binding (tested: 30 nM)
B1: AH06, variant of hu4D5 from library LN02, IgG format (antibody, V domains shown)
VH: EVQLVESGGGLVQPGGSLRLSCAASGFNIKDTYIHWVRQAPGKGLEWVARIYPTNGYTRYADSVKGRFTISADTSKNTAYLQMNSLRAEDTAVYYCSRWGGWGFYAFALWGQGTLVTVSS
VL: not shown
